Results: the nanobody polyreactivity screen of Harvey et al. (2022)

Assay: yeast display, Sf9 membrane polyspecificity reagent, FACS + sequencing; frameworks hold sequencing errors
Method in brief: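 Synthetic nanobody libraries on Saccharomyces cerevisiae BJ5465 were galactose-induced for 36–48 hours, stained 1 hour at 4 °C with 10% biotinylated, detergent-solubilized Sf9 membrane reagent and enriched on streptavidin microbeads. FACS then separated cells into low and high (top ~1%) gates by anti-HA (expression) and streptavidin (reagent binding) fluorescence. Genes were colony-PCR amplified, MiSeq 2 × 250 sequenced and CDR-length filtered. A clone's polyreactivity label is that of its gate of origin.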

Sequence	polyreactivity (PSR sort gate)
QVQLEESGVGLVQAGGSLRLSSAASGNIFVRYSMGWYRQARGKERELVAAISWSGGRTYYADSVKGRFTISRDKAKNSVYFQMNSLKPEDTAVYYCAAGVPKIGQAGYDYWGQGTQVTVSA	high polyreactivity
QVQLVESGGGLVQAGGSLRLSCAASGFTFGYYAMGWYRQAPGKERELVASISSRGGSTNYADSVKGRFTISRDNAKNTVYLQMNSLKPEDTAVYYCNADYYYPLRSNKYYYWGQGTQVTVSS	high polyreactivity
QVQLVESVGGLVQAGGSLRLSCAASGRTIVTNAIGWYRQAPGKERELVAAISRRTGSTYYADSVKGRFTISRDNAKNTVYLQMNSLKPEDTAVYYCAAKGYGSAPTYRHNYWGQGTQVTVSS	high polyreactivity
QVQLVESGGGLVQAGGSLRLICAASGRIFTYNAMGWYRQAPGKERELVARITSGGNTNYADSVKGRFTISRDNAKNTVYLQMNSLKPEDTAVYYCATGLFWFTNRYGSWGQGTQVTVSS	low polyreactivity
QVQLVESGGGLVQAGGSLRLSCAASGSIFDAYMGWYRQAPGKERELVAGITRSGGSTYYADSVKGRFTISRDNAKNTVYLQMNSLKPEDTAVYYCAADYSSDGDYWGQGTQVTVSS	low polyreactivity
QVQLVESGGGLVQAGGSLRLSCAASGSILTRYAMGWYRQAPGKERELVAANTYSGDSTYYADSVKGRFTISRDNAKNTVYLQMNSLKPEDTAVYYCAARKYYARYYWGQGTQVTVSS	high polyreactivity
QVQLVESGGGLVQAGGSLRLSCAASGSIFDLNAMGWYRQAPGKERELVAAISKSGGSTYYADSVKGRFTISRDNAKHTVYLQMNSLKPEDTAVYYCAARYHYPGNWYNYWGQGTQVTVSS	low polyreactivity
QVQLVESGGGLVQAGGSLRLSCAASGNIYNYAMGWYIQAPGKERELVAAIRSSDGSTYYADSVKGRFTISRDNAKNTVYLQMNSLKPEDTAVYDCARRTRRTSTYYYYGSRYYYWGQGTQVTVSS	high polyreactivity
QVQLVESGGGLVQAGGSLRLSCAASGRIFSFYTMGWSRQAPGKERELVAAISNVGGTDYADSVKGRFTISRDNAKNTVYLQMNSLKPEDTAVYYCHAAWGRYFRYRWYTNGLDYWGQGTQVTVSS	low polyreactivity
QVQLVESGGGLVQAVGSLRLSCAASGFILTRYAMGWYRQAPGKERELVAGIRLRGGSTYYADSVKGRFTISRDNAKNTVYLQMNSLKPEDTAVYYCAARYYYQYDYWGQGTQVTVSS	high polyreactivity
QVQLVESGGGLVQARGSLRLSSAASGSTFSYYAMGGYRQEHGTETQLVATISKRGGSTYYADSVKGRFTISRDNAKNTVYLQMNSLKPEDTAVYYCAAEFLVRYGYDYWGQGTQVTVSS	high polyreactivity
QVQLVESGGGLVQAGGSLRLSCAASGRTFYSYAMGWYRQAPGKERELVAAISSSSGRTYYADSVKGRFTISRDNAKNTVYLQMNSLKPEDTGVYYCNRAGGYRTTFYSWGQGTQVTVSS	high polyreactivity
QVQLVESGGGLVKAGGSLRLSCAASGFIFYIYAMGWYRQAPGKERELVAAITSGGSTYYADSVKGRFTISRDNAKNTVYLQMNSLKPEDTAVYYCAAESYYGYDYWGQGTQVTVSS	low polyreactivity
QVQLVESGGGLVQAGGSLRLSCAASGIIFWDNAMGWYRQAPGQDRELVASINYSGGSTYYADSVKGRFTISRDNAKNTVYLQMNSLKPEDTAVYDCAARTVTLDDWDYAYDYWGQGTQVTVSS	low polyreactivity
QVQLVESGGGLVQAGGSLRLSCAASGFIFNYNTMGWYRQAPGKERELVAAITWSGVSTYADSVKGRFTISRDNAKNTVYLQMNSLKPEDTAVYYCAASPYQRESVYDFGYDYWGQGTQVTVSS	low polyreactivity
QVQLVESGGGLVQAGGSLRLSCAASGRIFNSNAMGWYRQAPGKERELVAAISWSGGTTYYADSVKGRFTISRDNAKNTVYLQMNSLKPEDTAVYYCNADLWTSYFGRGDYWGQGTQVTVSS	low polyreactivity
QVQLVESGGGLVQAGGSLRLSCAASGSILESIVMGWYRQAPGKERELVASISSSGDSSYADSVKGRFTISRDNAKNTVYLQMNSLKPEDTAVYYCAADRWYWTYALYYWGQGTQVTVSS	low polyreactivity
QVQLVESGGGLVQAGGSLRLSCAASGITFSKYAMGWFRHAPGKERELFASITWSGTSTYYADSVKGRFTISRDNAKNTVYLQMKSLKPEDTAVYYCAADGWGTFWRAQNGYGYEHDYWGKGTQVTVSS	low polyreactivity
QDQLVESGGGLVQAGGSLRLSCAASGRIFAGNARGWYRQAPGKERELVATITRGGSTNYADSVKRPFTISRDNAKNTVYLQMNSLNPEDTAVYYCNADIRRHGGYAHVYWGQGTQVTVSS	low polyreactivity
QVQLVESGGGLVQAGGSLRLSCAASGRTFQLNAMGWYRQGPGNERELVAAISTRGGSTYYADSVKGRFTISRDNAKNTVYLQMNSLKPEDTAVYYCAKDPSFTRGYKEGGGYDYWGQGTQVTVSS	high polyreactivity
QVQIVESGGGLVQAGGSLRLSCAASGRIFDYYAMGWYRQAPGKERELVADITSGGSTYYADSVKGRFTISRDNAKNTVYLQMNSLKPEDTAVYYCNADGPGSYIWYYFVYTTPEYDYWGQGTQVTVSS	low polyreactivity
QVQLVESGGGLVQAGGSLRLSCAASGIFLVYAMGWYRQAPGKERELVAAIRSDASTNYADSVKGRFTISRDNAKNTVYLQMNILKPEDTAVYYCNTAQLVSDEFDYWGQGTQVTVSS	low polyreactivity

Sequence	polyreactivity (PSR sort gate)
QVQLVESGGGLVQAGGSLRLSCAASGSIFKINAMGWYRQAPGKERELVATITWSTGTTYYADSVKGRFTISRDNAKNTVYLQMNSLKPEDTAVYYCATDGDSTKLDYWGQGTQVTVSS	low polyreactivity
QVQLVESGGGLVQAGGSLRLSCAASGSTIPSYAMGWYRQATGKERELVASITYSDGTTRYADSVKGRFTISRDYAKNTVYFQMYSLKPEDTAVYYCNAVYYREGMDYWGQGTQVSVSS	low polyreactivity
QVLLVESGGGLVQAGGSLRLSCAASGRIFYSNVMGWYIQAPGKERELVAAISGRTGGTYYADSVKGRFTISRDNAKNTVYLQMNSLKPEDTAVYYCAARVIYYYGSGPYDYWGQGTQVTVSS	low polyreactivity
QVQLVESGGGLVQAGGSLRLSCAASGLTFVWYAMGWYIQAPGKERELVAGITSGGRTYYADSVKGRFTISRDNAKNTVYLQMISLKPEDTGVYDCNAVVRWGYGYDYWGQGTQVTVSS	high polyreactivity
QVQLVESGGGLVQAGGTLRLSCDASGRTFHVYAMGWYRHAPGKERELVAAISGRTGSTYYADSVKGRFTISRDIAKNTVYLQMNSLKPEDTAVYYCAKGYSYGWWGGFGYWGQGTQVTVSS	high polyreactivity
QVQLVESGGGLVQAGGSLRLSCAASGSIFYVYAMGWYRQAPGKERELVAAISDDGDTYYADSVKGRFTISRDNAKNTVYLQMNSLNPEDTAVYYCAAEGGANEENSSPEYDYWGQGTQVTVSS	low polyreactivity
QVQLVESGGGLVQAGGSLRLSCAASGSTFVTNAMGWYRQAPGKEREFVAAISNSSGSTYYADSVKGRFTISRDNEKNTVYLQMNSLKPEDTAVYYCNATPDDWLQEDYWGQGTQVTVSS	low polyreactivity
QVQLVESGGGLVQAGGSLRLSCAASGITFSRNVMGWYRQAPGKERELVAAISRSGGTTTYADSVKGRFTISRDNAKNTVYLQMNSLKPEDTAVYYCNVYDYPTYDYWGQGTQVSVSS	low polyreactivity
QVQLVESGGGLVQAGGSLRLSCAASGRTLRHYTMGWYRQAPGKERELVAAITSRGSSTYYAESVKGRFTISRDNAKNTVYLQMNSLTPEDTAVYYCNATYVRLTQYFPRLYYPYYFWGQGTQVTVSS	low polyreactivity
QVQLVESGGGLVQAGGSLRLSCAASGSTFRYYAMGWYRQAPGKERELVASISSGGSTNYADSVKGRFTISRDNAKNTVYLQMNSLKPEDTAVYYCNADSWTVNRRYYYYRYEYWGQGTQVTVSS	low polyreactivity
QVQLVESGGGLVQAGGSLRLSCAASGSIFGYYAMGWYRQAPGKERELVAAISGSGGSTYYADSVKGRFTMSRDNAKNTVYLQMNSLKPEDTAVYYCARVRGGYDKMYYWGQGTQVTVSS	high polyreactivity
QLQLVESGGGLVQAGGSLRLSCAASGFTFKYNARGWYSQAPGKARELVASISSGSTTYADSVKGRFTISRDNAKNTVYLQINSLKPEDTAVYYCAASVSRGKRFRYGYVFKMDHWGQGTQVTVSS	low polyreactivity
QVQLVETGVGLVQAGGSLRVICAASGLTFYLYAMGWNRQAPGKERELAAAISSTGITNFADSVKGRFTISRDNAKNTVYLQMTSLKPEDTAVYYCNADYHPFFFEFNYWGKGTQVTVSS	high polyreactivity
QVQLVESGGGLVQAGGSLRLSCAASGRTSYINAMGWYRPAPGKERELVAAITVRAGRTYYADSVKGRFTISRDNANKTVYLQMNSLKPEDTAVYYCAAGVSEGSGDLYYWGQGTQVTVSS	low polyreactivity
QVQLVESGGGLVQAGGSLRLSCAASGFTCLFYDMGWYRQAPGKERELVASITWSGTSTYADSVKGRFTISRDNAINTVYLQMNSLKPEDTAVYYCNAEPHGVKVSYDYWGQGTQVTVSS	low polyreactivity
QVQLVESGGGLVQAGGSLRLSCAASGRIFRSYALGWYRQAPGKERELAAAISYGGGSTYYADSVKGRFTISRDNAKNTVYLQMNSLKPEDTAVYYCAARGYSRPMDYWGQGTQVTVSS	high polyreactivity
QVQLVESGGGLVQAGGSLRLSCAASGRTFRHYAMGWYRQAPGKERELVAAISGSGGRTYYADSVKGRFTISRDNAKNTVYLQMNSLKPEDTAVYYCNAYTWTYGEYEYWGQGTQVTVSS	high polyreactivity
QDQLVESVGGLVQAGGSLRLSCAASGSIFVRYAMGWYRQAPGKERELVAAISSDGNTYYADSVKGRFTISRDNAKNTVYLQMNSLKPEDTAVYYCAAKTRSRYYWGQGTQVTVSS	high polyreactivity
QVQLVESGGGLVQAGGSLRLSCAASGITFWDYAMGWYRQAPGKERELVAGISTRGGSTYYADSVKGRFTISRDNEKNTVYLQMNSLKPEDTAVYYCATDDPLSQINEQGMDYWGQGTQVTVSS	low polyreactivity
QVQLVESGGGLVQAGGSLRLSCAASGRIVYYNVMGWYRQAPGKEREFVAAISTRTGSTYYADSVKGRFTISRDNAKNSVYLQMNRLKPEDTAVYYCAAPYRAYSYDYWGQGTQVTVSS	high polyreactivity
QVQLVEAGGGLVQAGGSLRLSCAASGRTFGSNAMGWYRQAPGKERELVAVITTSGGSTYYADSVKGRFTISRDNAKNTVYLQMNSLKPEDTAVYYCAKRVATGYIWYGYGYWGQGTQVTVSS	high polyreactivity
